Data from the RNAGym collection of RNA variant scans (doi:10.1073/pnas.2313332121).
Fewer inactive variants are shown than the library holds.

B1: TPR 5TU (parent)
chain: GGAUCUUCUCGAUCUAACAAAAAAGACAAAUCUGCCACAAAGCUUGAGAGCAUCUUCGGAUGCAGAGGCGGCAGCCUUCGGUGGCGCGAUAGCGCCAACGUUCUCAACUAUGACACGCAAAACGCGUGCUCCGUUGAAUGGAGUUUAUCAUG

Variants of: B1
Assay: polymerase ribozyme fitness, log enrichment relative to wild type (log ratio); higher = more active; in vitro selection for triplet polymerase activity
Summary of the method: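 Input and output libraries were sequenced on Illumina after a single in vitro selection round, run in triplicate on PCR-built, transcribed mutant libraries of each subunit of a heterodimeric triplet polymerase ribozyme. Selection annealed libraries to a biotinylated primer, the partner subunit and triplets, incubated them frozen at −7 °C, then gel-excised extended constructs for streptavidin-bead capture and RT-PCR. Genotypes with ≥10 input reads and ≥1 read per output were kept. Fitness is the logarithm, taken in base 2, of genotype enrichment divided by wild-type enrichment, using inverse-variance-weighted replicate averages.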
For C72U U101C, the “polymerase ribozyme fitness (log ratio)” value was 0.482. For C76G C85U U139C, the “polymerase ribozyme fitness (log ratio)” value was ≤ -4.2. In the case of C75U G94A A142C, the “polymerase ribozyme fitness (log ratio)” value is reported as -2.13. In the case of G70C G86C, the “polymerase ribozyme fitness (log ratio)” value is reported as ≤ -4.2. For G68A G83U G88A A107U C114U, the “polymerase ribozyme fitness (log ratio)” value was ≤ -4.2. With G71U G80C C93U A97U C132A the “polymerase ribozyme fitness (log ratio)” value was ≤ -4.2. With C69A C95A C96G G152U the “polymerase ribozyme fitness (log ratio)” value was -3.59. With A66G G92C the “polymerase ribozyme fitness (log ratio)” value was -3.77. With G65C C149G the “polymerase ribozyme fitness (log ratio)” value was ≤ -4.2. With A73C U127A U144G the “polymerase ribozyme fitness (log ratio)” value was ≤ -4.2. With G67U G70U G81A G83U A97U the “polymerase ribozyme fitness (log ratio)” value was ≤ -4.2. With A73G C87U G92U A122U C131A the “polymerase ribozyme fitness (log ratio)” value was -4.1. With A64U C93G C114G the “polymerase ribozyme fitness (log ratio)” value was ≤ -4.2. With C69A A73G C87U the “polymerase ribozyme fitness (log ratio)” value was ≤ -4.2. In the case of G65C, the “polymerase ribozyme fitness (log ratio)” value is reported as ≤ -4.2. In the case of G65U, the “polymerase ribozyme fitness (log ratio)” value is reported as -3.1. For G65A, the “polymerase ribozyme fitness (log ratio)” value was -1.04. For G70A U144C, the “polymerase ribozyme fitness (log ratio)” value was -3.66. For A73G G94A A97U A120U, the “polymerase ribozyme fitness (log ratio)” value was -1.74. In the case of G74A C103G, the “polymerase ribozyme fitness (log ratio)” value is reported as ≤ -4.2. With A64U A73G A89C G92A A150U the “polymerase ribozyme fitness (log ratio)” value was ≤ -4.2. For C75G C87G C93U C103G, the “polymerase ribozyme fitness (log ratio)” value was ≤ -4.2. For C75U G94C, the “polymerase ribozyme fitness (log ratio)” value was 0.488. With A64C A66C C125U the “polymerase ribozyme fitness (log ratio)” value was ≤ -4.2. For A73C A106U A110C, the “polymerase ribozyme fitness (log ratio)” value was ≤ -4.2. In the case of G65A G124U, the “polymerase ribozyme fitness (log ratio)” value is reported as -1.24. With G71A C132U the “polymerase ribozyme fitness (log ratio)” value was -3.5. In the case of C75G C93A C108G C132A G140A G143A, the “polymerase ribozyme fitness (log ratio)” value is reported as -4.12. In the case of G68A C116A C123U, the “polymerase ribozyme fitness (log ratio)” value is reported as ≤ -4.2. For G68A C95U, the “polymerase ribozyme fitness (log ratio)” value was -3.77. In the case of G67A G83A, the “polymerase ribozyme fitness (log ratio)” value is reported as ≤ -4.2. With G68U C76U the “polymerase ribozyme fitness (log ratio)” value was ≤ -4.2. With C69U A115U C123U the “polymerase ribozyme fitness (log ratio)” value was -1.62. For A73G G88C A107U C129U U139C U148A, the “polymerase ribozyme fitness (log ratio)” value was ≤ -4.2. In the case of A73U G83U G84U A97C G100U C105A, the “polymerase ribozyme fitness (log ratio)” value is reported as ≤ -4.2. With C75A C79G C93A the “polymerase ribozyme fitness (log ratio)” value was -4.11. In the case of G65A C131U, the “polymerase ribozyme fitness (log ratio)” value is reported as -0.0454. With G71C C79U A91C U135G the “polymerase ribozyme fitness (log ratio)” value was ≤ -4.2. In the case of C76A C96U, the “polymerase ribozyme fitness (log ratio)” value is reported as -0.773. In the case of G67U C87U U104G C132G U144C U148G, the “polymerase ribozyme fitness (log ratio)” value is reported as ≤ -4.2. For A66G C87A, the “polymerase ribozyme fitness (log ratio)” value was ≤ -4.2. For A73G G84A, the “polymerase ribozyme fitness (log ratio)” value was -0.268. In the case of G68C C93U, the “polymerase ribozyme fitness (log ratio)” value is reported as -4.04. In the case of A64C C85G G140A, the “polymerase ribozyme fitness (log ratio)” value is reported as ≤ -4.2. With G68A C79U A91G the “polymerase ribozyme fitness (log ratio)” value was -4.14. In the case of C63U C93A, the “polymerase ribozyme fitness (log ratio)” value is reported as -3.69. For C69G G71U G140A, the “polymerase ribozyme fitness (log ratio)” value was ≤ -4.2. For A64G G86U U130C, the “polymerase ribozyme fitness (log ratio)” value was ≤ -4.2. For C63U G83C C96U C105G G117U, the “polymerase ribozyme fitness (log ratio)” value was -2.06. With G68C A97U U102A the “polymerase ribozyme fitness (log ratio)” value was ≤ -4.2. In the case of A73G G86A A150G, the “polymerase ribozyme fitness (log ratio)” value is reported as ≤ -4.2. In the case of G68A C85U A110G, the “polymerase ribozyme fitness (log ratio)” value is reported as ≤ -4.2. For G65U G84U G88A, the “polymerase ribozyme fitness (log ratio)” value was ≤ -4.2. For A73G U144C, the “polymerase ribozyme fitness (log ratio)” value was 0.137. For A73G U144G, the “polymerase ribozyme fitness (log ratio)” value was 1.28. With C76A U127A the “polymerase ribozyme fitness (log ratio)” value was -3.75. In the case of A64C G83C U139C A150C G152U, the “polymerase ribozyme fitness (log ratio)” value is reported as ≤ -4.2. In the case of G74A G86C G100C C103G C105A U151A, the “polymerase ribozyme fitness (log ratio)” value is reported as ≤ -4.2. In the case of C75U G141A, the “polymerase ribozyme fitness (log ratio)” value is reported as -0.767. In the case of C75A A137C A150U, the “polymerase ribozyme fitness (log ratio)” value is reported as ≤ -4.2. With G74C G80C G92U C103G A106U the “polymerase ribozyme fitness (log ratio)” value was ≤ -4.2. With C72A C103G C118G U148G the “polymerase ribozyme fitness (log ratio)” value was ≤ -4.2. With G71C C87G G128A the “polymerase ribozyme fitness (log ratio)” value was ≤ -4.2. In the case of G71C G94A, the “polymerase ribozyme fitness (log ratio)” value is reported as -3.93. With G70A U77G U78G C87A A97C A122U the “polymerase ribozyme fitness (log ratio)” value was ≤ -4.2. In the case of C75G G81A A122G, the “polymerase ribozyme fitness (log ratio)” value is reported as ≤ -4.2. In the case of G65A C96U, the “polymerase ribozyme fitness (log ratio)” value is reported as -1.03. In the case of G71A C93U, the “polymerase ribozyme fitness (log ratio)” value is reported as -2.94. With A73G G83C U145G the “polymerase ribozyme fitness (log ratio)” value was -2.01. In the case of C69G A73G, the “polymerase ribozyme fitness (log ratio)” value is reported as -2.59. With C76A A97U the “polymerase ribozyme fitness (log ratio)” value was -1.06. For G65A G126A, the “polymerase ribozyme fitness (log ratio)” value was -0.138. With C75G G92A C105G C114G U146C the “polymerase ribozyme fitness (log ratio)” value was ≤ -4.2. In the case of A66U C85U U102C A107G G143C, the “polymerase ribozyme fitness (log ratio)” value is reported as ≤ -4.2. With C69A U77G C118U U139C the “polymerase ribozyme fitness (log ratio)” value was ≤ -4.2. In the case of G74C U130A, the “polymerase ribozyme fitness (log ratio)” value is reported as ≤ -4.2. For C75A C129G U146C, the “polymerase ribozyme fitness (log ratio)” value was ≤ -4.2. In the case of G67U U146A, the “polymerase ribozyme fitness (log ratio)” value is reported as -2.89. For G68A G81U C96A, the “polymerase ribozyme fitness (log ratio)” value was -3.57. With A73U G81A A122U the “polymerase ribozyme fitness (log ratio)” value was -0.858. In the case of C69U G86A, the “polymerase ribozyme fitness (log ratio)” value is reported as -1.13. For G67A C87U C103U C114G C116U A119G, the “polymerase ribozyme fitness (log ratio)” value was ≤ -4.2. With C72G A73C U102G C103G the “polymerase ribozyme fitness (log ratio)” value was ≤ -4.2. In the case of A73G C85U, the “polymerase ribozyme fitness (log ratio)” value is reported as -0.115.
